# Measured values: paper PMC4823042, “Transcription factor LSF (TFCP2) inhibits melanoma growth”
# T1: LSF (Late SV40 factor 3) (human, UniProt Q12800 1-502)
# T1 sequence: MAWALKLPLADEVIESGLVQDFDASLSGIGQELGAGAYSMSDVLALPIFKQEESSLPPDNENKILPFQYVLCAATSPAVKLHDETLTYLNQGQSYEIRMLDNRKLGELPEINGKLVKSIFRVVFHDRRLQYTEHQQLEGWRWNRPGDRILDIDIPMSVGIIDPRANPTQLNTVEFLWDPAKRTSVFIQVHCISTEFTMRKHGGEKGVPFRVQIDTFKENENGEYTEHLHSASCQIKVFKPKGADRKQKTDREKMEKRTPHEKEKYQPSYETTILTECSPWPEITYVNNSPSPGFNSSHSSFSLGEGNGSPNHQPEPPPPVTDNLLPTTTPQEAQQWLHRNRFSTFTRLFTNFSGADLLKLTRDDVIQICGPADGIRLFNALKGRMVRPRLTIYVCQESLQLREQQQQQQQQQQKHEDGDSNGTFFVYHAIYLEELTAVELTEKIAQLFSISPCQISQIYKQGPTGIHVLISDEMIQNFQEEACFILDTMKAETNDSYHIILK
# B1: p21 promoter #3 (dsDNA)
# DNA 1: GCTGGCTCGGCGCTGGGCAGCCAGGAGCCT
# DNA 2: GCCCAGGCTCCTGGCTGCCCAGCGCCGAGCC
# B2: p21 promoter #1 (dsDNA)
# DNA 1: GCACGCGAGGTTCCGGGACCGGCTGGCCTGC
# DNA 2: TCCAGCAGGCCAGCCGGTCCCGGAACCTCGC
# B3: p21 promoter #1 mutant (dsDNA)
# DNA 1: GCACGCGAGGTTACGTGACCGTATGTCCTGC
# DNA 2: TCCAGCAGGACATACGGTCACGTAACCTCGC
# B4: p21 promoter #2 (dsDNA)
# DNA 1: GCTGGAACTCGGCCAGGCTCAGCTGGCTCGG
# DNA 2: AGCGCCGAGCCAGCTGAGCCTGGCCGAGTTC
# B5: p21 promoter #4 (dsDNA)
# DNA 1: GCCTCCTTGAGGCGGGCCCGGGCGGGGCGGT
# DNA 2: TACAACCGCCCCGCCCGGGCCCGCCTCAAGG
# B6: p21 promoter #4 mutant (dsDNA)
# DNA 1: GCCTCCTTGAGTAGGTCCCGGTAGGTGCGGT
# DNA 2: TACAACCGCACCTACCGGGACCTACTCAAGG
# Molecular target: T1, LSF (Late SV40 factor 3)
# Test: EMSA; LightShift Chemiluminescent EMSA kit per manufacturer; 7% PAGE in 0.5x TBE; binding buffer, pH and temperature not stated
# Settings: protein: ivt; tags: FLAG; chain copies: 4; label: biotin end label; 5' overhangs 3 nt (top) and 4 nt (bottom)
row,Binder,binding result
1,B1,binds

# Same assay, conditions: protein: ivt; tags: FLAG; chain copies: 4; label: biotin end label; 5' overhangs 4 nt on both strands
row,Binder,binding result
1,B2,binds
2,B3,no binding
3,B4,binds
4,B5,binds
5,B6,no binding
